Experimental findings from the Human Domainome abundance scans (Beltran et al. 2025) are described below.

± gives the uncertainty stated by the source.

The chains are these.
B1: Receptor-interacting serine/threonine-protein kinase 2, residues 438 to 518; numbered along this chain, O43353 (parent)
chain: QWIQSKREDIVNQMTEACLNQSLDALLSRDLIMKEDYELVSTKPTRTSKVRQLLDTTDIQGEEFAKVIVQKLKDNKQMGLQ

The data set covers variants of B1. Briefly: abundance fitness (aPCA) (normalised: wild type 0, dead -1); higher = more abundant; growth selection in yeast, the domain comes from the species named. The note with it: Homo sapiens.
For QWIQSKREDIVNQMTEACLNQSLDALLSRDLIMKEDYELYSTKPTRTSKVRQLLDTTDIQGEEFAKVIVQKLKDNKQMGLQ [V40Y], the abundance fitness was -0.438 ± 0.48.

Consider QWIQSKREDIVNQMTEACLNQSLDALLSRDLIMKEDYELTSTKPTRTSKVRQLLDTTDIQGEEFAKVIVQKLKDNKQMGLQ [V40T], for which the abundance fitness is -0.997 ± 0.2.

Take QWIQSKREDIVNQMTEACLNQSLDALLSRDLIMKEDYELDSTKPTRTSKVRQLLDTTDIQGEEFAKVIVQKLKDNKQMGLQ [V40D]: the abundance fitness is -0.754 ± 0.23.

For the variant QWIQSKREDIVNQMTEACLNQSLDALLSRDLIMKEDYELSSTKPTRTSKVRQLLDTTDIQGEEFAKVIVQKLKDNKQMGLQ [V40S], the abundance fitness was -0.603 ± 0.079.

With QWIQSKREDIVNQMTEACLNQSLDALLSRDLIMKEDYELLSTKPTRTSKVRQLLDTTDIQGEEFAKVIVQKLKDNKQMGLQ [V40L], the abundance fitness was -0.701 ± 0.1.

Consider QWIQSKREDIVNQMTEACLNQSLDALLSRDLIMKEDYELASTKPTRTSKVRQLLDTTDIQGEEFAKVIVQKLKDNKQMGLQ [V40A], for which the abundance fitness is -0.528 ± 0.085.

For QWIQSKREDIVNQMTEACLNQSLDALLSRDLIMKEDYELMSTKPTRTSKVRQLLDTTDIQGEEFAKVIVQKLKDNKQMGLQ [V40M], the abundance fitness is -0.815 ± 0.22.

QWIQSKREDIVNQMTEACLNQSLDALLSRDLIMKEDYELFSTKPTRTSKVRQLLDTTDIQGEEFAKVIVQKLKDNKQMGLQ [V40F]: the abundance fitness is -0.436 ± 0.18.

As to QWIQSKREDIVNQMTEACLNQSLDALLSRDLIMKEDYELRSTKPTRTSKVRQLLDTTDIQGEEFAKVIVQKLKDNKQMGLQ [V40R], the abundance fitness was -0.836 ± 0.082.

With QWIQSKREDIVNQMTEACLNQSLDALLSRDLIMKEDYELPSTKPTRTSKVRQLLDTTDIQGEEFAKVIVQKLKDNKQMGLQ [V40P], the abundance fitness was -0.732 ± 0.11.

QWIQSKREDIVNQMTEACLNQSLDALLSRDLIMKEDYELESTKPTRTSKVRQLLDTTDIQGEEFAKVIVQKLKDNKQMGLQ [V40E]: the abundance fitness is -0.682 ± 0.13.

As to QWIQSKREDIVNQMTEACLNQSLDALLSRDLIMKEDYELCSTKPTRTSKVRQLLDTTDIQGEEFAKVIVQKLKDNKQMGLQ [V40C], the abundance fitness is -0.302 ± 0.11.

For QWIQSKREDIVNQMTEACLNQSLDALLSRDLIMKEDYELWSTKPTRTSKVRQLLDTTDIQGEEFAKVIVQKLKDNKQMGLQ [V40W], the abundance fitness is -1.04 ± 0.23.

As to QWIQSKREDIVNQMTEACLNQSLDALLSRDLIMKEDYELGSTKPTRTSKVRQLLDTTDIQGEEFAKVIVQKLKDNKQMGLQ [V40G], the abundance fitness is -0.715 ± 0.081.

In the case of QWIQSKREDIVNQMTEACLNQSLDALLSRDLIMKEDYELISTKPTRTSKVRQLLDTTDIQGEEFAKVIVQKLKDNKQMGLQ [V40I], the abundance fitness stood at 0.146 ± 0.19.

Take QWIQSKREDIVNQMTEACLNQSLDALLSRDLIMKEDYELNSTKPTRTSKVRQLLDTTDIQGEEFAKVIVQKLKDNKQMGLQ [V40N]: the abundance fitness is -0.466 ± 0.38.

Regarding QWIQSKREDIVNQMTEACLNQSLDALLSRDLIMKEDYELHSTKPTRTSKVRQLLDTTDIQGEEFAKVIVQKLKDNKQMGLQ [V40H], the abundance fitness was determined as 0.095 ± 0.37.

As for QWIQSKREDIVNQMTEACLNQSLDALLSRDLIMKEDWELVSTKPTRTSKVRQLLDTTDIQGEEFAKVIVQKLKDNKQMGLQ [Y37W], the abundance fitness was -0.232 ± 0.066.

As for QWIQSKREDIVNQMTEACLNQSLDALLSRDLIMKEDYEEVSTKPTRTSKVRQLLDTTDIQGEEFAKVIVQKLKDNKQMGLQ [L39E], the abundance fitness is -0.003 ± 0.14.

Turning to QWIQSKREDIVNQMTEACLNQSLDALLSRDLIMKEDYERVSTKPTRTSKVRQLLDTTDIQGEEFAKVIVQKLKDNKQMGLQ [L39R], the abundance fitness amounted to 0.015 ± 0.047.

Take QWIQSKREDIVNQMTEACLNQSLDALLSRDLIMKEDYEWVSTKPTRTSKVRQLLDTTDIQGEEFAKVIVQKLKDNKQMGLQ [L39W]: the abundance fitness is -0.815 ± 0.13.

Consider QWIQSKREDIVNQMTEACLNQSLDALLSRDLIMKEDYEFVSTKPTRTSKVRQLLDTTDIQGEEFAKVIVQKLKDNKQMGLQ [L39F], for which the abundance fitness is -0.436 ± 0.09.

Take QWIQSKREDIVNQMTEACLNQSLDALLSRDLIMKEDYENVSTKPTRTSKVRQLLDTTDIQGEEFAKVIVQKLKDNKQMGLQ [L39N]: the abundance fitness is -0.034 ± 0.17.

In the case of QWIQSKREDIVNQMTEACLNQSLDALLSRDLIMKEDYEIVSTKPTRTSKVRQLLDTTDIQGEEFAKVIVQKLKDNKQMGLQ [L39I], the abundance fitness was -0.352 ± 0.11.

With QWIQSKREDIVNQMTEACLNQSLDALLSRDLIMKEDYEAVSTKPTRTSKVRQLLDTTDIQGEEFAKVIVQKLKDNKQMGLQ [L39A], the abundance fitness is 0.092 ± 0.08.

Consider QWIQSKREDIVNQMTEACLNQSLDALLSRDLIMKEDYEYVSTKPTRTSKVRQLLDTTDIQGEEFAKVIVQKLKDNKQMGLQ [L39Y], for which the abundance fitness is -0.407 ± 0.23.

In the case of QWIQSKREDIVNQMTEACLNQSLDALLSRDLIMKEDYESVSTKPTRTSKVRQLLDTTDIQGEEFAKVIVQKLKDNKQMGLQ [L39S], the abundance fitness was -0.138 ± 0.071.

As to QWIQSKREDIVNQMTEACLNQSLDALLSRDLIMKEDYEHVSTKPTRTSKVRQLLDTTDIQGEEFAKVIVQKLKDNKQMGLQ [L39H], the abundance fitness is -0.107 ± 0.081.

For QWIQSKREDIVNQMTEACLNQSLDALLSRDLIMKEDYECVSTKPTRTSKVRQLLDTTDIQGEEFAKVIVQKLKDNKQMGLQ [L39C], the abundance fitness is -0.379 ± 0.1.

As for QWIQSKREDIVNQMTEACLNQSLDALLSRDLIMKEDYEPVSTKPTRTSKVRQLLDTTDIQGEEFAKVIVQKLKDNKQMGLQ [L39P], the abundance fitness is -0.635 ± 0.13.

In the case of QWIQSKREDIVNQMTEACLNQSLDALLSRDLIMKEDYEGVSTKPTRTSKVRQLLDTTDIQGEEFAKVIVQKLKDNKQMGLQ [L39G], the abundance fitness is -0.34 ± 0.056.

Consider QWIQSKREDIVNQMTEACLNQSLDALLSRDLIMKEDYEKVSTKPTRTSKVRQLLDTTDIQGEEFAKVIVQKLKDNKQMGLQ [L39K], for which the abundance fitness was found to be 0.119 ± 0.19.

Turning to QWIQSKREDIVNQMTEACLNQSLDALLSRDLIMKEDYEDVSTKPTRTSKVRQLLDTTDIQGEEFAKVIVQKLKDNKQMGLQ [L39D], the abundance fitness is -0.194 ± 0.11.

For QWIQSKREDIVNQMTEACLNQSLDALLSRDLIMKEDYEVVSTKPTRTSKVRQLLDTTDIQGEEFAKVIVQKLKDNKQMGLQ [L39V], the abundance fitness was -0.199 ± 0.079.
